The values that follow come from publication PMC5817196, “DprA from Neisseria meningitidis: properties and role in natural competence for transformation” (Microbiology, 2017).

B6: DNA processing chain A from Neisseria meningitidis MC58 (DprANm), recombinant, N-terminal 6xHis-tag (natural protein, UniProt Q9K1K1 1-397, looked up)
chain: MTEDERFAWLQLAFTPYIGAESFLLLMRRFGSAQNALSAPAEQVAALIRHKQALEAWRNAEKRALARQAAEAALEWEMRDGCRLMLLQDEDFPEMLTQGLTAPPVLFLRGNVQLLHKPSAAIVGSRHATPQAMRIAKDFGKSLGGKGIPVVSGMASGIDTAAHQGALQAEGGTIAVWGTGIDRIYPPVNKNLAYEIAEKGLIVSEFPIGTRPYAGNFPRRNRLIAALSQVTLVVEAALESGSLITARLAAEMGREVMAVPGSIDNPHSKGCHKLIKDGAKLVECLDDILNECPGLLQNTGASSYSINKGIPEKRITAVQTASDQLSLPEGKMPSEKTENRPVGGSILDRMGFDPVHPDVLAGQLAMPAADLYAALLELELDGSVAAMPGGRYQRIRT
notes: DprA (DNA processing chain A) of Neisseria meningitidis strain MC58, locus NMB0116; the dprA gene was amplified with primers EH041 and EH042 and inserted into pET28b(+); Theoretical size of the dimer is printed as 89.6 kDa; also called Nm DprA; source: E. coli ER2566 carrying pMGM1 (pET28b(+)), purified (Ni-NTA, dialysed)

In series [1] the target is T1, DprA (DprANm) (Neisseria meningitidis MC58, UniProt Q9K1K1 1-397).
T1 sequence: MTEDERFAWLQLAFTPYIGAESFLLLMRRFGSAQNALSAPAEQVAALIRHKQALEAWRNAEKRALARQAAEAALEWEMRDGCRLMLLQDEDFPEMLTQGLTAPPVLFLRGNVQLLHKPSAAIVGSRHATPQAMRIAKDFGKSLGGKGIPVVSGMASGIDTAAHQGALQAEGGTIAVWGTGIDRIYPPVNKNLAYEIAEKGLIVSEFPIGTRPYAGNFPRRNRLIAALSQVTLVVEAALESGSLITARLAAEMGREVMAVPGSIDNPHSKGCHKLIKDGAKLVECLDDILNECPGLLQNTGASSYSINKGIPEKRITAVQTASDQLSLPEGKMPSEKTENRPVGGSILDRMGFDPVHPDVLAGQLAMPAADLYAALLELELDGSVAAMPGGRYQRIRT
In words: EMSA; 30 nM DprA; very stable complex; EMSA: 40 mM Tris-HCl pH 8, 2.5 mM EDTA, 2 mM MgCl2, 100 mg/ml BSA (so in the source), 6% glycerol, 1 mM DTT; 30 min on ice; 5% native PAGE at 4 °C. The following applies: protein: recombinant; tags: N-terminal 6xHis (pET28b, cleavable); chain copies: 2; label: 32P. For orientation: Mobility shift assays separate free from complexed probe on a gel.

Series [2] concerns the molecule itself. In words: SEC-MALS; Superdex 200 10/300 GL with Malvern Viscotek UV, RI and static light-scattering detectors; calibrated with BSA; conditions similar to the co-size-exclusion assay; size from the main eluting peak. (In general: SEC sorts molecules by how far they enter the pores of the column.)
Series [3] addresses B6. In words: MST; RED-NHS-labelled SSBNm (23.6 nM) or SSBNmΔ8C (25.6 nM), DprANm titrated; 20 mM HEPES pH 7.5, 300 mM NaCl, 0.05 % Tween 20, 0.1 % Pluronic F-127, 0.1 % PEG 8000, 2 mM DTT; 22 °C, 20 % MST power, Monolith NT.115. The conditions noted are these: both partners purified.
Series [4] has as its target T1, DprA (DprANm). The experiment in a line: EMSA; 20-40 nM DprA; affinity similar to C80; EMSA: 40 mM Tris-HCl pH 8, 2.5 mM EDTA, 2 mM MgCl2, 100 mg/ml BSA (so in the source), 6% glycerol, 1 mM DTT; 30 min on ice; 5% native PAGE at 4 °C. The conditions noted are these: protein: recombinant; tags: N-terminal 6xHis (pET28b, cleavable); chain copies: 2; label: 32P end label.

The target in series [5] is T1, DprA (DprANm). The experiment in a line: EMSA; 0.5-80 nM DprA; stronger than dsDNA G80C80 (P=0.034); EMSA: 40 mM Tris-HCl pH 8, 2.5 mM EDTA, 2 mM MgCl2, 100 mg/ml BSA (so in the source), 6% glycerol, 1 mM DTT; 30 min on ice; 5% native PAGE at 4 °C. The conditions noted are these: protein: recombinant; tags: N-terminal 6xHis (pET28b, cleavable); chain copies: 2; label: 32P end label.

For series [6], the target named is T1, DprA (DprANm). In words: EMSA; 30 nM DprA; complex dissociates easily during electrophoresis; EMSA: 40 mM Tris-HCl pH 8, 2.5 mM EDTA, 2 mM MgCl2, 100 mg/ml BSA (so in the source), 6% glycerol, 1 mM DTT; 30 min on ice; 5% native PAGE at 4 °C. The conditions noted are these: protein: recombinant; tags: N-terminal 6xHis (pET28b, cleavable); chain copies: 2; label: 32P.

The term stoichiometry N denotes the number of molecules, sites or subunits per partner or assembly. The term Kd denotes the concentration at which binding is half-saturated.

B1: dT80 (ssDNA)
DNA: TTTTTTTTTTTTTTTTTTTTTTTTTTTTTTTTTTTTTTTTTTTTTTTTTTTTTTTTTTTTTTTTTTTTTTTTTTTTTTTT
For the molecule B1, the binding result in series [1] is given as “binds”.

B2: single-stranded binding protein of Neisseria meningitidis (SSBNm), recombinant (natural protein, UniProt P66848 1-174, looked up)
chain: MSLNKVILIGRLGRDPEVRYMPNGEAVCNFSVATSETWNDRNGQRVERTEWHNITMYRKLAEIAGQYLKKGGLVYLEGRIQSRKYQGKDGIERTAYDIVANEMKMLGGRNENSGGAPYEEGYGQSQEAYQRPAQQSRQPASDAPSHPQEAPAAPRRQPVPAAAPVEDIDDDIPF
modifications: RED-NHS dye (Monolith NT Protein Labeling kit RED-NHS), degree of labelling 0.3 to 0.6, in the MST experiment only
notes: Theoretical size of the tetramer is printed as 83.4 kDa
Regarding B2, the “stoichiometry N” value in series [2] was 4. For the same molecule, the Kd in series [3] was found to be 1.46 ± 0.544 µM.

B3: GTB25 (ssDNA)
DNA: GCCGTCTGAAAGCTCTAGGCCGTCTGAAACGTCAGGCCGTCTGAAAGCTCTAGGCCGTCTGAAACGTCAGGCCGTCTGAA
B3: in series [4], the binding result was “binds”.

B4: C80 (ssDNA)
DNA: GCTGATCAACCCTACATGTGTAGGTAACCCTAACCCTAACCCTAAGGACAACCCTAGTGAAGCTTGTAACCCTAGGAGCT
B4: the binding result in series [5] is “binds”.

B5: dT40 (ssDNA)
DNA: TTTTTTTTTTTTTTTTTTTTTTTTTTTTTTTTTTTTTTTT
As to B5, the binding result in series [6] is given as “binds”. With B6, in series [2], the “stoichiometry N” value turned out to be 2.
